Laboratory results reported in paper PMC4358367, “Structural basis of diverse membrane target recognitions by ankyrins” (eLife, 2014).

B1: AnkB_repeats (24 ANK repeats of human 220 kDa ankyrin-B, residues 28–873) [human] / Cav1.3 peptide (mouse Cav1.3 residues 2134–2166), FITC-labeled [modified: FITC label (position not stated); FITC label (position not stated)] [mouse] (parent complex)
chain 1: KSDSNASFLRAARAGNLDKVVEYLKGGIDINTCNQNGLNALHLAAKEGHVGLVQELLGRGSSVDSATKKGNTALHIASLAGQAEVVKVLVKEGANINAQSQNGFTPLYMAAQENHIDVVKYLLENGANQSTATEDGFTPLAVALQQGHNQAVAILLENDTKGKVRLPALHIAARKDDTKSAALLLQNDHNADVQSKMMVNRTTESGFTPLHIAAHYGNVNVATLLLNRGAAVDFTARNGITPLHVASKRGNTNMVKLLLDRGGQIDAKTRDGLTPLHCAARSGHDQVVELLLERGAPLLARTKNGLSPLHMAAQGDHVECVKHLLQHKAPVDDVTLDYLTALHVAAHCGHYRVTKLLLDKRANPNARALNGFTPLHIACKKNRIKVMELLVKYGASIQAITESGLTPIHVAAFMGHLNIVLLLLQNGASPDVTNIRGETALHMAARAGQVEVVRCLLRNGALVDARAREEQTPLHIASRLGKTEIVQLLLQHMAHPDAATTNGYTPLHISAREGQVDVASVLLEAGAAHSLATKKGFTPLHVAAKYGSLDVAKLLLQRRAAADSAGKNGLTPLHVAAHYDNQKVALLLLEKGASPHATAKNGYTPLHIAAKKNQMQIASTLLNYGAETNIVTKQGVTPLHLASQEGHTDMVTLLLDKGANIHMSTKSGLTSLHLAAQEDKVNVADILTKHGADQDAHTKLGYTPLIVACHYGNVKMVNFLLKQGANVNAKTKNGYTPLHQAAQQGHTHIINVLLQHGAKPNATTANGNTALAIAKRLGYISVVDTLKVVTEEVTTTTTTITEKHKLNVPETMTEVLDVSDEEGDDTMTGDGGEYLRPEDLKELGDD
chain 2: ELQDFGPGYSDEEPDPGREEEDLADEMICITTL

Variants of: B1
Assay: fluorescence polarisation; parent: 3.3e+03 nM

Kd | Variant
3.3 µM | chain 1 F104Q, chain 1 F137Q
8.2 µM | chain 1 I240Q, chain 1 L273Q
4 µM | chain 1 L339Q, chain 1 F372Q, chain 1 L405Q
